As a reminder, the Kd is the constant that tells how readily two partners part at equilibrium. In general, koff refers to the first-order rate constant of dissociation. A lower koff goes with a long-lived complex. As usually defined, the kon is the rate constant with which the complex forms. The low end stands for slow association, the high end for fast association. As a reminder, the EC50 (read off the curve) is the midpoint of the concentration-response curve.

The target in assay [1] is T1, human EGFR protein (human, UniProt P00533 25-645, limits assumed).
T1 construct: The BLI text says 'human EGFR'; the ELISA text says only 'EGFR'; also called epidermal growth factor receptor; HER1
The assay is described as follows: BLI (Octet RED96e), antibody captured on anti-human Fc (AHC) biosensors, EGFR in solution.
Experimental: Affinity tests are performed in SD buffer (0.02% Tween-20, 0.1% BSA in PBS buffer, pH 7.4) using anti-human Fc Capture (AHC) biosensors. Antibody sample or buffer are dispensed into 96-well microtiter plates. AHC biosensors (Pall FortéBio) are pre-wet with SD buffer to establish a baseline before protein immobilization. The antibody sample is immobilized onto the biosensors. […] Mutant and control antibodies binding is evaluated at various concentrations of EGFR. Data are generated automatically by the Data Acquisition software, and data analysis is performed using FortéBio Data Analysis software.

Assay [2] concerns the target T1, human EGFR protein. The assay is described as follows: ELISA. On the technique in general: ELISA stands for enzyme-linked immunosorbent assay.
Experimental: (§1) Mutant antibody samples or control antibodies diluted in 5-fold serial dilutions starting from 10 μg/mL and 8 dilutions total, were coated onto 96-well plates and the plates were incubated at 4° C. overnight. Using HRP-labeled goat anti-human IgG Fc antibody (Sigma, A0170) in 40000 dilution as a detection agent and TMB for colorimetric reaction, the plates read at 450/650 nm for absorbance on Microplate Reader (Molecular Devices, SpectraMax 190) and data analysis was performed using a dose response curve format four parameters logistic model.
The target of assay [3] is T1, human EGFR protein. The assay is described as follows: ELISA of binding to EGFR, 5-fold dilutions from 10 ug/mL, detection with HRP goat anti-human IgG Fc, OD 450/650 nm.
Experimental: as §1

B1: BB0500-2n (antibody)
heavy: QVQLQESGPGLVKPSETLSLTCTVSGGSVSSGDYYWTWIRQSPGKGLEWIGHIYYSGNANYNPSLKSRLTISIDTSKTQFSLKLSSVTAADTAIYYCVRDRVTGAFDIWGQGTMVTVSSASTKGPSVFPLAPCSRSTSESTAALGCLVKDYFPEPVTVSWNSGALTSGVHTFPAVLQSSGLYSLSSVVTVPSSNFGTQTYTCNVDHKPSNTKVDKTVEPPKSDCKTHTVECPPCPAPEAAGGPSVFLFPPKPKDTLMISRTPEVTCVVVDVSHEDPEVKFNWYVDGVEVHNAKTKPREEQYNSTYRVVSVLTVLHQDWLNGKEYKCKVSNKALPAPIEKTISKAKGQPREPQVYTLPPSREEMTKNQVSLTCLVKGFYPSDIAVEWESNGQPENNYKTTPPVLDSDGSFFLYSKLTVDKSRWQQGNVFSCSVMHEALHNHYTQKSLSLSPGK
light: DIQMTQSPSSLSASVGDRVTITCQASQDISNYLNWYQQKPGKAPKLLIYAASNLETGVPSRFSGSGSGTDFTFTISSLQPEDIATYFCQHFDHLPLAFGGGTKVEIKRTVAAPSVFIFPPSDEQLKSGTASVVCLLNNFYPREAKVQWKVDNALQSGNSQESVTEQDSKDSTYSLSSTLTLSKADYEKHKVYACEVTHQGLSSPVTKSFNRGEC
notes: Same variable domains as BB0500-2f; the heavy chain constant part differs
In the assay with human EGFR protein [1], B1 displayed a dissociation constant Kd of 0.0441 µM, a koff of 0.024 s⁻¹ and a kon of 543000 M⁻¹ s⁻¹.

B2: BB0500-2g1 (antibody, V domains shown)
VH: QVQLQESGPGLVKPSETLSLTCTVSGGSVSSGDYYWTWIRQSPGKGLEWIGHIYYSGNTNYNPSLKSRLTISIDTSKTQFSLKLSSVTAADTAIYYCVRDRVAGAFDIWGQGTMVTVSS
VL: DIQMTQSPSSLSASVGDRVTITCQASQDISNYLNWYQQKPGKAPKLLIYDASNLETGVPSRFSGSGSGTDFTFTISSLQPEDIATYFCQHFDHLPLAFGGGTKVEIKR
notes: The entries already carry the mutation; also called H3T103 single alanine mutant of panitumumab (VH T103A, VL wt)
As to B2, the “EC50 fold change against wt control” value in the assay with human EGFR protein [2] was approximately 100 fold.

B3: BB0500-2f1 (antibody, V domains shown)
VH: QVQLQESGPGLVKPSETLSLTCTVSGGSVSSGDYYWTWIRQSPGKGLEWIGHIYYSGNANYNPSLKSRLTISIDTSKTQFSLKLSSVTAADTAIYYCVRDRVTGAFDIWGQGTMVTVSS
VL: DIQMTQSPSSLSASVGDRVTITCQASQDISNYLNWYQQKPGKAPKLLIYDASNLETGVPSRFSGSGSGTDFTFTISSLQPEDIATYFCQHFDHLPLAFGGGTKVEIKR
notes: The entries already carry the mutation; also called H2T59 single alanine mutant of panitumumab (VH T59A, VL wt)
In the assay with human EGFR protein [1], B3 returned a Kd of 0.00112 µM, a koff of 0.000736 s⁻¹ and a kon of 655000 M⁻¹ s⁻¹. Besides, the “EC50 (read off the curve)” value in the assay with human EGFR protein [3] was approximately 0.02 mg/L.

B4: BB0500-2f2 (antibody, V domains shown)
VH: QVQLQESGPGLVKPSETLSLTCTVSGGSVSSGDYYWTWIRQSPGKGLEWIGHIYYSGNTNYNPSLKSRLTISIDTSKTQFSLKLSSVTAADTAIYYCVRDRVTGAFDIWGQGTMVTVSS
VL: DIQMTQSPSSLSASVGDRVTITCQASQDISNYLNWYQQKPGKAPKLLIYAASNLETGVPSRFSGSGSGTDFTFTISSLQPEDIATYFCQHFDHLPLAFGGGTKVEIKR
notes: The entries already carry the mutation; also called L2D50 single alanine mutant of panitumumab (VH wt, VL D50A)
In the assay with human EGFR protein [1], B4 gave a Kd of 0.0283 µM, a dissociation rate constant (koff) of 0.0154 s⁻¹ and a kon of 543000 M⁻¹ s⁻¹. Further, the “EC50 (read off the curve)” value in the assay with human EGFR protein [3] was approximately 0.02 mg/L.

B5: BB0500-2f (antibody)
heavy: QVQLQESGPGLVKPSETLSLTCTVSGGSVSSGDYYWTWIRQSPGKGLEWIGHIYYSGNANYNPSLKSRLTISIDTSKTQFSLKLSSVTAADTAIYYCVRDRVTGAFDIWGQGTMVTVSSASTKGPSVFPLAPCSRSTSESTAALGCLVKDYFPEPVTVSWNSGALTSGVHTFPAVLQSSGLYSLSSVVTVPSSNFGTQTYTCNVDHKPSNTKVDKTVEPKSDKCTHTVECPPCPAPPVAGPSVFLFPPKPKDTLMISRTPEVTCVVVDVSHEDPEVQFNWYVDGVEVHNAKTKPREEQFNSTFRVVSVLTVVHQDWLNGKEYKCKVSNKGLPAPIEKTISKTKGQPREPQVYTLPPSREEMTKNQVSLTCLVKGFYPSDISVEWESNGQPENNYKTTPPMLDSDGSFFLYSKLTVDKSRWQQGNVFSCSVMHEALHNHYTQKSLSLSPGK
light: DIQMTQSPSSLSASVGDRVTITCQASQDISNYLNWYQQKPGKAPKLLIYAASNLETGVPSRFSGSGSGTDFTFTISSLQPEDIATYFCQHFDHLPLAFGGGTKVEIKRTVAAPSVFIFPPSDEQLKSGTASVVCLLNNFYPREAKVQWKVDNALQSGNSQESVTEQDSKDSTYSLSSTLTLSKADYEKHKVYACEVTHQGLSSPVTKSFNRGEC
notes: Same variable domains as BB0500-2n; the heavy chain constant part differs; also called H2T59 / L2D50 double alanine mutant of panitumumab (VH T59A, VL D50A)
Regarding B5, in the assay with human EGFR protein [3], the concentration giving a half-maximal response (EC50 (read off the curve)) is approximately 0.02 mg/L.

B6: BB0500-2g (antibody, V domains shown)
VH: QVQLQESGPGLVKPSETLSLTCTVSGGSVSSGDYYWTWIRQSPGKGLEWIGHIYYSGNTNYNPSLKSRLTISIDTSKTQFSLKLSSVTAADTAIYYCVRDRVAGAFDIWGQGTMVTVSS
VL: DIQMTQSPSSLSASVGDRVTITCQASQDISNALNWYQQKPGKAPKLLIYDASNLETGVPSRFSGSGSGTDFTFTISSLQPEDIATYFCQHFDHLPLAFGGGTKVEIKR
notes: also called H3T103 / L1Y32 double alanine mutant of panitumumab (VH T103A, VL Y32A)
In the assay with human EGFR protein [1], B6 came in with a dissociation constant Kd of 0.0388 µM, a koff of 0.0272 s⁻¹ and an association rate constant (kon) of 701000 M⁻¹ s⁻¹. The “EC50 (read off the curve)” value with human EGFR protein [3] is approximately 0.02 mg/L.

The record behind these values is patent US20240009318A1 (BLISS BIOPHARMACEUTICAL HANGZHOU, published 2024).
